What all share (test): EC50 of free RNA motif oligo competing protein binding to immobilised probe
One data set deals with T1, RBMS1 (UniProt P29558).
T1 sequence: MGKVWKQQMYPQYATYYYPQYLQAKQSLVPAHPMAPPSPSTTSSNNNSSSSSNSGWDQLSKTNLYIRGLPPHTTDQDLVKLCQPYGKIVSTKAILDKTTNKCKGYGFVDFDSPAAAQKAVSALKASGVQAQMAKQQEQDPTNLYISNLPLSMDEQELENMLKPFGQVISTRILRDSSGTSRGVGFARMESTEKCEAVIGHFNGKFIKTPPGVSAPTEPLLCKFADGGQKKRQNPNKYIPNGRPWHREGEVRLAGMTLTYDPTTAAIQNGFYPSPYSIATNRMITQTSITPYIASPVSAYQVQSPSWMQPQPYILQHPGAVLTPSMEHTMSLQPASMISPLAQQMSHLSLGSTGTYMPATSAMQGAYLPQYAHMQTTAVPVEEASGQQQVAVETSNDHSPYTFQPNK
The method, boiled down:
(§1)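 HEK293-FT lysate (2.5 mg protein/well) was treated with free RNA oligos (0 nM to 30 μM) for 1 h at 4°C, then with the same oligos on NHS-Sepharose beads for 30 min at 4°C. Bound proteins were quantified by label-free LC-MS/MS relative to the control. EC50 came from a four-parameter log-logistic fit, and Kd is EC50 times a protein-dependent depletion factor.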

The target in another data set is MSI1 (UniProt O43347). The method, boiled down: as §1
Sequence of MSI1 (O43347 whole entry): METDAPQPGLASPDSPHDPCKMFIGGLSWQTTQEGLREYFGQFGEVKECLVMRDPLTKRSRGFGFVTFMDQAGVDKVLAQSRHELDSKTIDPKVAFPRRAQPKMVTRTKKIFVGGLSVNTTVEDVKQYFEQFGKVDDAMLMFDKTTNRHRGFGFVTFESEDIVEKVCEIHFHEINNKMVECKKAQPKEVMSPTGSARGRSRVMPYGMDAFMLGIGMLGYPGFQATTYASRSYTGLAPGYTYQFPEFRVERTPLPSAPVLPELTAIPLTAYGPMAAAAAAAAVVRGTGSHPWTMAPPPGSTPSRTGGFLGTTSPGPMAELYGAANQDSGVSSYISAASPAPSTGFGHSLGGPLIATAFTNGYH
A further data set deals with PABPC1 (UniProt P11940). The method, boiled down: as §1
Sequence of PABPC1 (P11940 whole entry): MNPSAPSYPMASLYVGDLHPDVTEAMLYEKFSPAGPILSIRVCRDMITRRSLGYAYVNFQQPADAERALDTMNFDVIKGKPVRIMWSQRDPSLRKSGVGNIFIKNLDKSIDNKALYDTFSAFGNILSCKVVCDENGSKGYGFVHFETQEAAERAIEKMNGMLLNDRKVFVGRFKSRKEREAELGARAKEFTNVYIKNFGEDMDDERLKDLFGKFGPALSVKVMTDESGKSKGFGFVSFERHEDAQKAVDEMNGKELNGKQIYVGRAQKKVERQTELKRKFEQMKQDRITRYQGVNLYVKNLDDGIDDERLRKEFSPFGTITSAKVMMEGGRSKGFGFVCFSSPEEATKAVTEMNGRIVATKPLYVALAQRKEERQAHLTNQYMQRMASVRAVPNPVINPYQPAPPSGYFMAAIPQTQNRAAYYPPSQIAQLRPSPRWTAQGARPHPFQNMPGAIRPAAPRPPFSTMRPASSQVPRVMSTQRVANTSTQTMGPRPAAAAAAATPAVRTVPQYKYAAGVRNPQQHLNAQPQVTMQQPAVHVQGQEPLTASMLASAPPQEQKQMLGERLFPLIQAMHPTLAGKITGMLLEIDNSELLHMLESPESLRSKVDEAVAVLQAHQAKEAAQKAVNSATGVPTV
The target of the next data set is T2, MEX3B (UniProt Q6ZN04).
T2 sequence: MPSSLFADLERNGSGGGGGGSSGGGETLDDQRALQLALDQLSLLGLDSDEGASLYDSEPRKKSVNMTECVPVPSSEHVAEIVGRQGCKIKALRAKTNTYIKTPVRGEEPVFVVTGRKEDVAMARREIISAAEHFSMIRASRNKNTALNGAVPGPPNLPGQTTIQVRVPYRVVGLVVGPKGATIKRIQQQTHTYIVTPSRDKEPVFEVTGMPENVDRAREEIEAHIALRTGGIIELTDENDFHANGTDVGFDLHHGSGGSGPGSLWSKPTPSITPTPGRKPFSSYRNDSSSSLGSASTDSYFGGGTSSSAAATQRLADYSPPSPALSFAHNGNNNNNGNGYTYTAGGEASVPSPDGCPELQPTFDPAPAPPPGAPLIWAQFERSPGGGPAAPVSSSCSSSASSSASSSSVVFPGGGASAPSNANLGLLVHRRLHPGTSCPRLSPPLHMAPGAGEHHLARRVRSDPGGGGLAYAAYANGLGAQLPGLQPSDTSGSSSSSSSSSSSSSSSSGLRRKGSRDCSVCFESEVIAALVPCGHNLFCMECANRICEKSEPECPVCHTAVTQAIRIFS
A digest of the protocol:
as §1

In another data set the target is ELAVL2 (UniProt Q12926). A digest of the protocol: as §1
Sequence of ELAVL2 (Q12926 whole entry): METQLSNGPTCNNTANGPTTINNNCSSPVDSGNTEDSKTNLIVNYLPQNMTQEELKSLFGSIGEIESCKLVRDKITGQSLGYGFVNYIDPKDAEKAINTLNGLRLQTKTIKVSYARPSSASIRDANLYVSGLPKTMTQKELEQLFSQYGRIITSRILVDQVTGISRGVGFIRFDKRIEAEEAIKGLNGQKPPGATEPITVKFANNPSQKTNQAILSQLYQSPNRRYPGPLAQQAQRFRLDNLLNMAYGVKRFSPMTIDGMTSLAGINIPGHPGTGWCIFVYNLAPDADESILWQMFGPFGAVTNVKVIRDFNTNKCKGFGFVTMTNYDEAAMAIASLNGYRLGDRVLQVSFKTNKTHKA
Another data set has as its target PABPC4 (UniProt Q13310). The method, boiled down:
as §1

The target of a further data set is T3, FUBP3 (UniProt Q96I24).
T3 sequence: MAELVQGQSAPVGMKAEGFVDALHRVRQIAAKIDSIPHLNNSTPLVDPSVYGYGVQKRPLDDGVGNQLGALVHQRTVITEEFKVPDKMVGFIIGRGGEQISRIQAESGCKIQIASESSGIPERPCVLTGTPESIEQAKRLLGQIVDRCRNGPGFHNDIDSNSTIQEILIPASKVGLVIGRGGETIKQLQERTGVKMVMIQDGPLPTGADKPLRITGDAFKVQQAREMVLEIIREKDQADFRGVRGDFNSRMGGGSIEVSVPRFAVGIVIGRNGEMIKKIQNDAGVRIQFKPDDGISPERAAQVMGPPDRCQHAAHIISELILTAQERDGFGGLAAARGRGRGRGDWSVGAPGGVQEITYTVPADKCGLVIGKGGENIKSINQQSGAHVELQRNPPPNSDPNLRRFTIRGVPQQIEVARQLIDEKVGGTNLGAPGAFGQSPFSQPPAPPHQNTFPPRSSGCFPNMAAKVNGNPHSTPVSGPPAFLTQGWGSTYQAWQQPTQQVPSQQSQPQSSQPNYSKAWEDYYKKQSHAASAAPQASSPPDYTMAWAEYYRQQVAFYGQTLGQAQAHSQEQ
A digest of the protocol: as §1

For a further data set, the target named is T4, SSB (UniProt P05455).
T4 sequence: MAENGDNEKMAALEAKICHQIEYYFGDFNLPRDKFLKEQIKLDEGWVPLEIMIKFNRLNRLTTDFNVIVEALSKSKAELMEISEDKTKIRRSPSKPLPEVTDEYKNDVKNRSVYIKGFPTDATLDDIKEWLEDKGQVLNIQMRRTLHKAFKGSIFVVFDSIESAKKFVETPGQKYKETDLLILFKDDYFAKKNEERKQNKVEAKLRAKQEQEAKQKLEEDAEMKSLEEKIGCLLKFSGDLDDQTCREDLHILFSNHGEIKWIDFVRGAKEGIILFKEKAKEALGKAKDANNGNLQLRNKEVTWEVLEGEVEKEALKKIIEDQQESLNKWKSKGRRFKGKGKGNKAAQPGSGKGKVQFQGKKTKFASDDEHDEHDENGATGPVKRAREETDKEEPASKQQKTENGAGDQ
The method, boiled down:
as §1

Another data set has as its target NCL (UniProt P19338). The method, boiled down:
as §1

Sequence of PABPC4 (Q13310 whole entry): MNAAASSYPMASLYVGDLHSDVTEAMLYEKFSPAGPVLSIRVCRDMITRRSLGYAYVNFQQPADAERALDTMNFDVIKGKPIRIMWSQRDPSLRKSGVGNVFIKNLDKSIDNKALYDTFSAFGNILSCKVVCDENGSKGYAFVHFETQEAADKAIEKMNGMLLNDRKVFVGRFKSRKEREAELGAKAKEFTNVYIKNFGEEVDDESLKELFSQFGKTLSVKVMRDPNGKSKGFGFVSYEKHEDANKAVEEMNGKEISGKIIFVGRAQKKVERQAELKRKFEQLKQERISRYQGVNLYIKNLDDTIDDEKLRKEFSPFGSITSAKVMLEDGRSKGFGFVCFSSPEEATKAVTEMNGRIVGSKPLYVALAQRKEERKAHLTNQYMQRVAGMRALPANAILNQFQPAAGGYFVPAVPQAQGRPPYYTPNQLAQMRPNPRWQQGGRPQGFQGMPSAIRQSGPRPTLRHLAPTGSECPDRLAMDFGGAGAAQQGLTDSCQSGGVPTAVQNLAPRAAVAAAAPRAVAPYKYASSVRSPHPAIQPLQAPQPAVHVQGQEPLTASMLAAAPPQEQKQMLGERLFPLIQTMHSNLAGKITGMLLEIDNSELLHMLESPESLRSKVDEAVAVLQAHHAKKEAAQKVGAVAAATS
Sequence of NCL (P19338 whole entry): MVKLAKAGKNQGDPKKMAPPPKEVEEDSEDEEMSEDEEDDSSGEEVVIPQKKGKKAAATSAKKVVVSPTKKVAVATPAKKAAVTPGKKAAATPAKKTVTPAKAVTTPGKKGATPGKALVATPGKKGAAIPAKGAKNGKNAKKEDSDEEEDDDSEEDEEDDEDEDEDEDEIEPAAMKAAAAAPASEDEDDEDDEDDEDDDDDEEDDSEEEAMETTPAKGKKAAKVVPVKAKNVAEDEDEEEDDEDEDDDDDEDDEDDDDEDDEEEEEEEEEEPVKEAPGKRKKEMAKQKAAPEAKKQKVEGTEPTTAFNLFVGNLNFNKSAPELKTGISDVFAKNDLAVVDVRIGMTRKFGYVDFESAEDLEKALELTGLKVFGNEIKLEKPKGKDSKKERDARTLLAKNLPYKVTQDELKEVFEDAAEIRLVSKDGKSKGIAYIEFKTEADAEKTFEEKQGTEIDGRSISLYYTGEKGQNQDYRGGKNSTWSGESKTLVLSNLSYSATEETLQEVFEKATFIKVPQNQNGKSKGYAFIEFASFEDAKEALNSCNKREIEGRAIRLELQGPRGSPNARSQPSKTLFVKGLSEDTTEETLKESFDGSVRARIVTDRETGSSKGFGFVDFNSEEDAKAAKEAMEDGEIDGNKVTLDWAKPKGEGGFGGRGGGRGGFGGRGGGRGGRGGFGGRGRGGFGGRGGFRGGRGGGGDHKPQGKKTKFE

With AAUAAA, the EC50 turned out to be 1570 nM with RBMS1; 3500 nM with MSI1; 10100 nM with PABPC1; 1640 nM with MEX3B; 9740 nM in the data set with ELAVL2; 4280 nM with PABPC4. This sequence also displayed an EC50 with FUBP3 of 2150 nM.
With CUGUCCU, the EC50 was determined as 2640 nM in the data set with SSB, 199 nM with PABPC1 and 321 nM with NCL.
Turning to UAUUUAU, the EC50 was 458 nM with RBMS1; 487 nM with MSI1; 300 nM with SSB; 728 nM with MEX3B; 3840 nM with ELAVL2; 2170 nM in the data set with NCL. Further, the EC50 came out at 13600 nM with PABPC4 and 802 nM with FUBP3.

The EC50 is the midpoint of the concentration-response curve. Low values mean greater potency, high ones weaker potency.
